Reference: patent publication US20240270826A1 (NATIONAL RESEARCH COUNCIL OF CANADA, published 2024)
“And” between values parts separate entries of the source, which are not always exact repeats. Identical values can stand only once.

Legend:
[1] = biological target: T1, SARS-CoV-2 spike protein S on live virus, Wuhan (strain SARS-CoV-2/Canada/VIDO-01/2020) (SARS-CoV-2 (Wuhan), UniProt P0DTC2 14-1273); test: cell-based or functional assay
[2] = biological target: T2, Human SARS-CoV-2_Wuhan S (SmT1) (SARS-CoV-2 (Wuhan), UniProt P0DTC2 14-1208); test: flow cytometry SVNA, VHH-Fc vs biotin-S binding to Vero E6 ACE2
[3] = biological target: T1, SARS-CoV-2 spike protein S on live …; test: cell-based or functional assay; remark: listed apart in the source
Human SARS-CoV S = Human SARS-CoV S (SARS-CoV, UniProt P59594 14-1190); test: flow cytometry SVNA: VHH-Fc inhibits S binding to ACE2 on Vero E6 cells
[4] = biological target: Human SARS-CoV-2_Wuhan S (SmT1) (SARS-CoV-2 (Wuhan), UniProt P0DTC2 14-1208); test: as above
[5] = biological target: T3, SARS-CoV-2 S2 (aa686-1208) (Wuhan) (SARS-CoV-2 Wuhan, UniProt P0DTC2 686-1208); test: ELISA
T3 construct: NRC; FLAG, 6xHis tags

[6] = biological target: T4, SARS-CoV-2 S on CHO-S cells (SARS-CoV-2, UniProt P0DTC2 14-1273); test: flow cytometry, CHO-S cells
T4 construct: whole, on cells

SARS-CoV spike (S) = SARS-CoV spike (S) (SARS-CoV, UniProt P59594 14-1195); test: ELISA
[7] = biological target: T2, Human SARS-CoV-2_Wuhan S (SmT1); test: flow cytometry SVNA, VHH vs biotin-S binding to Vero E6 ACE2
[8] = biological target: S1-Fc (SARS-CoV-2 S1 aa16-685, Wuhan, human IgG1 Fc) (SARS-CoV-2 (Wuhan); human, UniProt P0DTC2 16-685)
[9] = biological target: T5, SARS-CoV-2 S1 (aa16-685) (Wuhan) (SARS-CoV-2 Wuhan, UniProt P0DTC2 16-685); test: ELISA
T5 construct: NRC; FLAG, 6xHis tags

[10] = biological target: SARS-CoV-2 S1-NTD (aa16-305) (SARS-CoV-2 Wuhan, UniProt P0DTC2 16-305); test: ELISA

B1: NRCoV2-SR01 VHH-Fc (Fc fusion)
chain: EVQLVQSGGGSVQAGGSLRLSCVASGFTFDNYAIGWFRQAPGKEREGVSCISGNGGVTIYADSVKGRFTISRDNAKNLVYLQMNSLKPEDTAVYYCAATGIRSTWSVYGCSRLAGPYDYWGQGTQVTVSS
notes: bivalent VHH-Fc
[1]
  LVNA IC50: 9.42 nM
[2]
  IC50: 6.6 nM
  IC99: 56.9 nM
  Imax %: 59%
[3]
  MN100: 6.25 nM

B2: NRCoV2-SR01 VHH-Fc (Fc fusion)
chain: EVQLVQSGGGSVQAGGSLRLSCVASGFTFDNYAIGWFRQAPGKEREGVSCISGNGGVTIYADSVKGRFTISRDNAKNLVYLQMNSLKPEDTAVYYCAATGIRSTWSVYGCSRLAGPYDYWGQGTQVTVSS
notes: bivalent VHH-Fc
Human SARS-CoV S
  IC50: 5.1 nM
[4]
  IC50: 4.2 nM

B3: NRCoV2-SR03 VHH-Fc (Fc fusion)
chain: AVQLVDSGGGLVQAGGSLRLSCAASGSIFSNNHMGWYRQAPGKQRELVAAISSGGKTNYADFAKGRFTISRDNAKNMVYLQMNSLKPEDTAVYYCNRGGWEYRSSYYIMGPHWGQGTQVTVSS
notes: bivalent VHH-Fc
[5]
  binding result: no binding (tested: 13 nM)
[6]
  Bmax: 19900
  EC50: 7.1 nM
SARS-CoV spike (S)
  binding result: no binding (tested: 13 nM)

B4: NRCoV2-S2B3 VHH-Fc (Fc fusion)
chain: QVQLVDSGGGLVQAGGSLRLSCAASASTFGDSAMGYYRQAPGKQRELVATISTGSNTNYADSVKGRFTISRDDAKNTVYLQMNSLKPEDTAVYYCNYRSIYYGQNFWGQGTQVTVSS
notes: bivalent VHH-Fc
[6]
  Bmax: 6660
  EC50: 6.5 nM
SARS-CoV spike (S)
  binding result: no binding (tested: 13 nM)

B5: NRCoV2-1d VHH (VHH)
VHH: EVQLVESGGGSVQPGGSLRLSCAASGSTLDYYAIGWFRQAPGKEREWVSSVSSSDGNTLYADSVKGRFTISRDNAKNTVYLQMNSLKAEDTAVYVCAADYSMRPFAVGRWHRDYEYWGQGTQVTVSS
[7]
  IC50: 8.6 nM
  IC99: 40.8 nM
  Imax %: 72%
[8]
  EC50: 1.1 nM and 1.3 nM

B6: NRCoV2-02 VHH (VHH)
VHH: EVQLVESGGGLVQAGGSLRLSCAASGFTFSNYAMNWVRQAPGKGLEWVSGISGRGDDTRYADSVKGRFTISRDNAKNTLFLQMRSLRPEDTGVYRCTKGPDLYYFGSGYSDRGQGTQVTVSS
[7]
  IC50: 5.1 nM
  IC99: 15.5 nM
  Imax %: 100%
[8]
  EC50: 0.2 nM
[3]
  MN100: 1.25 nM

B7: NRCoV2-02 VHH-Fc (Fc fusion)
chain: EVQLVESGGGLVQAGGSLRLSCAASGFTFSNYAMNWVRQAPGKGLEWVSGISGRGDDTRYADSVKGRFTISRDNAKNTLFLQMRSLRPEDTGVYRCTKGPDLYYFGSGYSDRGQGTQVTVSS
notes: bivalent VHH-Fc
[1]
  LVNA IC50: 0.12 nM
[2]
  IC50: 5 nM
  IC99: 30 nM
  Imax %: 94%
[3]
  MN100: ≤ 0.01 nM

B8: NRCoV2-SR02 VHH-Fc (Fc fusion)
chain: EVQLVDSGGGLVQAGGSLRLSCTASEFTLNYYSIGWFRQSPGKEREGVSCIRYSGGGIDYADSVKGRFTISRDNAKNTVYLTMNSLKPEDTAVYYCAADRLYSRACPTAGGRNYWGQGTQVTVSS
notes: bivalent VHH-Fc
[1]
  LVNA IC50: 14.1 nM
[2]
  IC50: 5.8 nM
  IC99: 49.8 nM
  Imax %: 53%
[3]
  MN100: 6.25 nM

B9: NRCoV2-MRed11 VHH-Fc (Fc fusion)
chain: EVQLVESGGGLVQAGGSLRLSCAASGFTFSSYAMSWHRQAPGKGLEWVSAINSGGGSTSYADSVKGRFAISRDNAKNTLYLQMNSLKPEDTAVYYCATTISDGSSWSTKSYRGQGTQVTVSS
notes: bivalent VHH-Fc
[9]
  binding result: no binding (tested: 13 nM)
[10]
  binding result: no binding (tested: 13 nM)
[6]
  Bmax: 3250
  EC50: 2.9 nM
SARS-CoV spike (S)
  binding result: no binding (tested: 13 nM)

B10: NRCoV2-MRed04 VHH-Fc (Fc fusion)
chain: EVQLVESGGGLVQPGRSLRLSCAASGNSFSISTMGWFRQAPGKERELVASIWSDTTTSYADSVKGRFTISTDNTRTKVYLQMSSLNPEDTAVYYCAADRGFVVRGQYDYWGQGTQVTVSS
notes: bivalent VHH-Fc
Human SARS-CoV S
  IC50: 24.6 nM
[4]
  IC50: 5 nM

B11: NRCoV2-15 VHH-Fc (Fc fusion)
chain: EVQLVSSGGGLVEAGGSLRLSCIASGSTSGRNTMGWFRQAPGKQREWVAIVSTSGATNYAGSVKGRFTLSRDNAKNAVYLQMNNLKPEDTAVYYCYAAYGGGGDYWGQGTQVTVSS
notes: bivalent VHH-Fc
[5]
  binding result: no binding (tested: 13 nM)
[10]
  binding result: no binding (tested: 13 nM)
[6]
  Bmax: 21100
  EC50: 0.8 nM
SARS-CoV spike (S)
  binding result: no binding (tested: 13 nM)

B12: NRCoV2-17 VHH-Fc (Fc fusion)
chain: EVQLQQSGGGLVQTGGSLRLSCAAAGSPFSQLAMSWYRQISGKERAWVASISPTGNRSYSKIAKGRFTISRDNAKNTVTLQMTSLKPEDTAAYICQAANVNGGDYWGQGTQVTVSS
notes: bivalent VHH-Fc
[5]
  binding result: no binding (tested: 13 nM)
[10]
  binding result: no binding (tested: 13 nM)
[6]
  Bmax: 19000
  EC50: 0.4 nM
SARS-CoV spike (S)
  binding result: no binding (tested: 13 nM)

B13: NRCoV2-11 VHH-Fc (Fc fusion)
chain: EVQLVSSGGGLVQPGGSLRLSCAASGSSLDSYSVSWFRQAPGKEREWISFISRYYSSTYYTDSVKGRFTTSRDGDQKTVHLQMNSLKPEDTAVYYCAARSRDFSSPFSATDTYTSWGQGTQVTVSS
notes: bivalent VHH-Fc
Human SARS-CoV S
  IC50: 7.7 nM
[4]
  IC50: 3.2 nM

B14: NRCoV2-11 VHH (VHH)
VHH: EVQLVSSGGGLVQPGGSLRLSCAASGSSLDSYSVSWFRQAPGKEREWISFISRYYSSTYYTDSVKGRFTTSRDGDQKTVHLQMNSLKPEDTAVYYCAARSRDFSSPFSATDTYTSWGQGTQVTVSS
[8]
  EC50: 0.2 nM

B15: NRCoV2-07 VHH-Fc (Fc fusion)
chain: QVQLVQSGGGLVQPGGSLRLSCAASGVTLDYYAIGWFRQAPGKEREAVSCISSNGRRNHYVASVRGRFTISRDNAKSTVYLQMNSLKPEDTAVYYCAAVQDVHGDNYYCTSPNEYNVWGQGTQVTVSS
notes: bivalent VHH-Fc
Human SARS-CoV S
  IC50: 4.2 nM
[4]
  IC50: 4.7 nM

B16: NRCoV2-07 VHH (VHH)
VHH: QVQLVQSGGGLVQPGGSLRLSCAASGVTLDYYAIGWFRQAPGKEREAVSCISSNGRRNHYVASVRGRFTISRDNAKSTVYLQMNSLKPEDTAVYYCAAVQDVHGDNYYCTSPNEYNVWGQGTQVTVSS
[7]
  IC50: 7.5 nM
  IC99: 65.3 nM
  Imax %: 86%
[8]
  EC50: 1.1 nM and 1 nM

B17: NRCoV2-SR04 VHH-Fc (Fc fusion)
chain: QVQLVESGGGLVQAGGSLRLSCAASGRTFSSHTVGWYRQAPGKQRDLVAAISMGGNTNYADYADSVKGRFTISRDNAKNTLYLQMNSLKPEDTAVYYCNTAALVGNRLLPMATITWGQGTQVTVSS
notes: bivalent VHH-Fc
[5]
  binding result: no binding (tested: 13 nM)
[6]
  Bmax: 10100
  EC50: 8.2 nM
SARS-CoV spike (S)
  binding result: no binding (tested: 13 nM)

B18: NRCoV2-SR13 VHH-Fc (Fc fusion)
chain: EVQLVESGGGLVTTGGSLRLSCATSGSRFGSKHMAWYRQAPGKQRDLVAAISSGGSTHYGSSVKGRFTISRDNAKSTVYLQMNSLNPEDTAVFYCNMGGWDYRSNTYIPGSRSDYWGQGTQVTVSS
notes: bivalent VHH-Fc
Human SARS-CoV S
  IC50: 15 nM
[4]
  IC50: 7.7 nM

B19: NRCoV2-18 VHH-Fc (Fc fusion)
chain: EVQLVESGGGLVQAGGSLRLSCVASGITISGYNMAWWRQTRGKQTERVAFINSGGSTTYSDSVKGRFTISRDNGKNTAYLQMNSLNAEDTADYFCSLHTSHDYWGQGTQVTVSS
notes: bivalent VHH-Fc
Human SARS-CoV S
  IC50: 12.7 nM
[4]
  IC50: 9.1 nM

B20: NRCoV2-20 VHH-Fc (Fc fusion)
chain: EVQLQQSGGGLVQPGGSLRLSCAASGRTFSNYVVGWFRQAPQAPGKDHEFVAVISGSDTETYYADSVKGRFTISRDNAKNTVYLQMNSLKPEDTAVYYCAADRGMSYYYTRATEYYYWGQGTQVTVSS
notes: bivalent VHH-Fc
Human SARS-CoV S
  IC50: 10.3 nM
[4]
  IC50: 6.5 nM

B21: NRCoV2-12 VHH-Fc (Fc fusion)
chain: EVQLQQSGGGLVQAGGSLRLSCAASGRTFRNYVMGWFRQAPQAPGKDHEFVAAISWGGTEIYYADSVKGRFTISRDNAKNTVYLQMNSLKPEDTAVYYCAADRGLSYYYTRTTEYNYWGQGTQVTVSS
notes: bivalent VHH-Fc
Human SARS-CoV S
  IC50: 3.1 nM
[4]
  IC50: 3.5 nM
